Test results as given in patent publication US20230002757A1 (ZHEJIANG NANOMAB TECHNOLOGY CENTER, published 2023).
Residue numbers refer to the chain shown, from its start. Blank lines part the entries; values can stand above or below the binder they belong to.

Legend:
MSLN epitope domain 2 = target: T1, MSLN epitope domain 2 (UniProt Q13421 391-486, limits assumed); assay: ELISA, supernatant
T1 construct: domain: domain 2; also called domain 2 of MSLN

MSLN epitope domain 3 = target: T2, MSLN epitope domain 3 (UniProt Q13421 487-598, limits assumed); assay: ELISA, supernatant
T2 construct: domain: domain 3; also called domain 3 of MSLN

human IgG = target: T3, human IgG; assay: ELISA, human IgG coated 1 ug/mL
T3 construct: ELISA coating control

[1] = target: T4, EGFR on 293T-EGFR cells (293T cells negative for BCMA expression) (UniProt P00533 25-1210, limits assumed); assay: FACS on 293T-EGFR cells (BCMA negative)
T4 construct: whole, on cells; negative control cells; that they carry EGFR is read from the label only

Anti-His = target: T5, Anti-His; assay: ELISA, Anti-His coated 1 ug/mL
T5 construct: ELISA coating control

BCMA-His = target: T6, BCMA-His (human, UniProt Q02223 1-54); assay: ELISA, BCMA-His coated 1 ug/mL
T6 construct: coating antigen, 1 ug/mL; also called His-conjugated human BCMA; not shown: His tag
T6 sequence (looked up): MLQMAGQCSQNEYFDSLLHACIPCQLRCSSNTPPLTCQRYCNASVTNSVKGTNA

BCMA on RPMI8226 cells = target: T7, BCMA on RPMI8226 cells (UniProt Q02223 1-184, limits assumed); assay: FACS on RPMI8226 cells
T7 construct: whole, on cells
T7 sequence (looked up): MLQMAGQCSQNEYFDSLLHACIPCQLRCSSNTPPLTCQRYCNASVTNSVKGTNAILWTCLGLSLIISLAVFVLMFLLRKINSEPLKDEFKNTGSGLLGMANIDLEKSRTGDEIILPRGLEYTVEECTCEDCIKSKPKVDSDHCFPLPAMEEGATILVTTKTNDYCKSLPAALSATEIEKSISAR

[2] = target: T4, EGFR on 293T-EGFR cells (293T cells …); assay: flow cytometry
BCMA-Fc = target: T8, BCMA-Fc (human, UniProt Q02223 1-54); assay: ELISA, BCMA-Fc coated 1 ug/mL
T8 construct: coating antigen, 1 ug/mL; also called Fc-conjugated human BCMA; not shown: Fc
T8 sequence (looked up): T6 sequence (looked up)

MSLN epitope domain 1 = target: T9, MSLN epitope domain 1 (UniProt Q13421 296-390, limits assumed); assay: ELISA, supernatant
T9 construct: domain: domain 1; also called domain 1 of MSLN

[3] = target: T10, mesothelin (MSLN), full length (UniProt Q13421 296-598, limits assumed); assay: ELISA, supernatant
T10 construct: coating antigen of the ELISA; construct not described

PD-1 protein [4] = target: T11, PD-1 protein (human, UniProt Q15116 25-167, limits assumed); assay: ELISA, PD-1 coated
T11 construct: also called human PD-1
Procedure: 2 μg/ml of PD-1 protein is coated on 96-well plates overnight for ELISA binding assay. Recombinant VHH-FC proteins are added to the wells and allowed to stand for a period of time, then 1 μg/ml of HRP-conjugated anti-FC antibody is added as detection antibody and the assay reagents are added. The absorbance is read at 450 nm. Binding of nivolumab serves as a positive control and plates coated with BSA are used as the negative control group.

PD-1 protein [5] = target: T11, PD-1 protein; assay: blocking ELISA, PD-1 coated, competitor biotin PD-L1
Procedure: Each well of 96-well microtiter plates is coated with 2 μg/ml of PD-1 protein in PBS and blocked with 1% BSA. […]
The intensity of the developed color is measured at 450 nm. Wells with no added PD-1 and no added VHH-FC are negative and positive controls, respectively.

T10 sequence (Q13421 other isoform, or with tags, fused parts or gaps limits assumed): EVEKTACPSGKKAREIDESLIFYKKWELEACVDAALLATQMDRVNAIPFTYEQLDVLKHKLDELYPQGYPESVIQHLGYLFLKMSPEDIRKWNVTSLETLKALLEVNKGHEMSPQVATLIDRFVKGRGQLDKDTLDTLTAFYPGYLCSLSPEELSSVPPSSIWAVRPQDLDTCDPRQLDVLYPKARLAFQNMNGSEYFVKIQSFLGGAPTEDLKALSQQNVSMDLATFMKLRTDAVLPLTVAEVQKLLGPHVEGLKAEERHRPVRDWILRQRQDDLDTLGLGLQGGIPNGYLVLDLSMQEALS
T1 sequence (Q13421 other isoform, or with tags, fused parts or gaps limits assumed): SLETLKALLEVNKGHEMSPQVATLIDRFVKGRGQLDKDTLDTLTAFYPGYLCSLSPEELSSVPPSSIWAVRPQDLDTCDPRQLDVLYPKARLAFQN
T2 sequence (Q13421 495-606 limits assumed): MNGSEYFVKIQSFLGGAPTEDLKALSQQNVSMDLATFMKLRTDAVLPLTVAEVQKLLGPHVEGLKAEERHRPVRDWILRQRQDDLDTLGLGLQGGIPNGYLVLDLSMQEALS
T11 sequence (Q15116 25-167 limits assumed): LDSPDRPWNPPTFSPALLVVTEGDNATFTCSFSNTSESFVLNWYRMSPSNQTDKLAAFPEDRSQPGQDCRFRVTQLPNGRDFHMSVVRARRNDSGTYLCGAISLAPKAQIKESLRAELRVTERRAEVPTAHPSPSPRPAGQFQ
T9 sequence (Q13421 296-390 limits assumed): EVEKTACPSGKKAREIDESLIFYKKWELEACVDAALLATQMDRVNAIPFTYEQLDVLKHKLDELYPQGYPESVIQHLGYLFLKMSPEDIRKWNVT

binding result (MSLN epitope domain 2): no binding | binding result (MSLN epitope domain 3): no binding
B1: NBL501#004 (VHH)
VHH: EVQVVESGGGLVQAGGSLRLSCVPSGSISSIYAMGWYRQALGPERELVAAQTLGGGTYYANPVKGRFTIYRDNDKNTLYLQMNNLKPEDTAMYYCATPGEHWGSSDVTNWGQGTQVTVSS
notes: tested as supernatant in ELISA

OD450 (human IgG): 0.03 OD450 | MFI [1]: 230 MFI | OD450 (Anti-His): 2.1 OD450 | OD450 (BCMA-His): 2.37 OD450 | MFI (BCMA on RPMI8226 cells): 2420 MFI | binding result [2]: no binding | OD450 (BCMA-Fc): 2.47 OD450
B2: NBL507-A1L1-P1R2-1A1-(1)-PME207-SEQF_A01 (VHH)
VHH: EVQLVESGGGLVQPGGSLRLSCAASGFTFRSSAMSWARQAPGKGLEWVSDIYPDGRTDYADSIKGRFTMSRDNAKNTVYLLMDSLKPEDTAVYHCQVGRYVSGVYYQPRGQGTQVTVSS
notes: purified VHH; also called lAl

OD450 (human IgG): 0.03 OD450 | MFI [1]: 227 MFI | OD450 (Anti-His): 2.44 OD450 | OD450 (BCMA-His): 2.37 OD450 | MFI (BCMA on RPMI8226 cells): 2550 MFI | binding result [2]: no binding | OD450 (BCMA-Fc): 2.53 OD450
B3: NBL507-A1L1-P1R2-1E2-(10)-PME207-SEQF_B02 (VHH)
VHH: EVQLVESGGGLVQPGGSLRLSCAASGSISSIYAMGWYRQAPGKLRELVAAITTGGSTFYRDSVKGRFTISRDNVANTVYLQMNSLKPEDTAVYHCNGAPWGDIAPVAVSWGQGTQVTVSS
notes: purified VHH

binding result (MSLN epitope domain 3): no binding | binding result (MSLN epitope domain 1): no binding
B4: NBL501#009 (VHH)
VHH: EVQVVESGGGLVQAGGSLRLSCVASGFTFSVAAMRWYRQAPGKQREWVASAFSDGNLHYEDFVKGRFTISRDDAKNTLYLQMDSLKPEDTAVYYCNAGTPSRAYWGQGTQVTVSS
notes: as for B1

binding result [3]: no binding
B5: NBL501#003 (VHH)
VHH: QVQLVESGGGLVQPGGSLRLSCAASGITLDYYAIGWFRQAPGKEREGVSCISSSGGSTNYADSVKGRFTMSRDNAKNTVYLQMNSLKPEDTAVYYCAADIHCSGYVLFSPSDFGNWGQGTQVTVSS
notes: as for B1

binding result [3]: no binding
B6: NBL501#011 (VHH)
VHH: QVQLVESGGGLVQAGGSLRLSCAVFGNTGAIHAMAWYRQAPGKQREEVARISFGDGRTVYGDSVKGRFTISGDDAKNTMYLQMNILKAEDTAEYYCNAVFLGIGPTGRFEYEYWGQGTQVTVSS
notes: as for B1

OD450 at 0.002 µg/mL (PD-1 protein [4]): 0.03 OD450 | OD450 at 0.02 µg/mL (PD-1 protein [4]): 0.03 OD450 | OD450 at 0.2 µg/mL (PD-1 protein [4]): 0.03 OD450 | OD450 at 2 µg/mL (PD-1 protein [4]): 0.03 OD450 | OD450 of PD-L1 bound, antibody at 0.15 µg/mL (PD-1 protein [5]): 3.34 OD450 | OD450 of PD-L1 bound, antibody at 0.61 µg/mL (PD-1 protein [5]): 3.33 OD450 | OD450 of PD-L1 bound, antibody at 2.42 µg/mL (PD-1 protein [5]): 3.29 OD450 | OD450 of PD-L1 bound, antibody at 9.75 µg/mL (PD-1 protein [5]): 3.33 OD450
B7: 504#SS13 (Fc fusion, not shown: a dimerising Fc or GST; small tags and cut ends)
VHH: EVQVVESGGGSVQPGGSLRLSCAASGRGFTEHAMGWYRQSPGKEREFVAGISSGGSTYYADSVKGRFTVSRDSAGNTVALQMDSLKPEDTAVYYCSYKRGRYPDGVSTLEYWGQGTQVTVSS
notes: VHH-FC construct from HEK293 cells

OD450 (human IgG): 0.01 OD450 | MFI [1]: 219 MFI | OD450 (Anti-His): 1.79 OD450 | OD450 (BCMA-His): 2.27 OD450 | MFI (BCMA on RPMI8226 cells): 1810 MFI | binding result [2]: no binding | OD450 (BCMA-Fc): 2.47 OD450
B8: NBL507-A1L1-P1R2-1B8-(44)-PME207-SEQF_D06 (VHH)
VHH: QVQLVESGGGLVQPEGSLRLSCAASGSIFSIYAMGWYRQAPGKQRGLVAAITSGGDTFYADSVKGRFTISRDNARNTVYLQMNNLKSEDTAVYDCNGAPWGDHAPLVASWGQGTQVTVSS
notes: purified VHH

binding result (MSLN epitope domain 2): no binding | binding result (MSLN epitope domain 3): no binding
B9: NBL501#002 (VHH)
VHH: QVQLVESGGGLVQAGGSLRLSCAASISIRRINAMGWYRQAPGKERELVAVISSPNKTLYADSVKGRFTISKDNYTNTLYLQMNSLKPEDTAMYYCSAWRIGVDTTDYYGQGTQVTVSS
notes: as for B1

binding result [3]: no binding
B10: NBL501#006 (VHH)
VHH: QVQLVESGGGLVQAGGSLRLSCAASGSADSIPAMGWYRQAPGKEREYLAAISSGTNTYYASSAKGRFAISRNNANNTLYLQMNSLKPEDTAMYYCATCSSYYYCSGPYVRSWGQGTQVTVSS
notes: as for B1

binding result (MSLN epitope domain 2): no binding | binding result (MSLN epitope domain 3): no binding
B11: NBL501#008 (VHH)
VHH: QVQLVESGGGLVQAGGSLRLSCVASGIVFRLNAMGWFRQAPGRERELVATIASGGWAYYGDTMSGRVTISRDNDKNTLYLEMNSLKPEDSAMYYCSAGGARPHSWGQGTQVTVSS
notes: as for B1

OD450 (human IgG): 0.02 OD450 | MFI [1]: 222 MFI | OD450 (Anti-His): 0.57 OD450 | OD450 (BCMA-His): 2.32 OD450 | MFI (BCMA on RPMI8226 cells): 1260 MFI | binding result [2]: no binding | OD450 (BCMA-Fc): 2.35 OD450
B12: NBL507-A1L1-P1R2-1D2-(9)-PME207-SEQF_A02 (VHH)
VHH: QVQLVESGGGLVQPGGSLRLSCAASGFTFSSSAMSWARQAPGKGLECVSDIYPDGTSSYADSMKGRFTISRDNTRNTMYLQMNVLKPEDTATYYCVIGRGGYAMGDRRLRGQGTQVTVSS
notes: purified VHH

binding result [3]: no binding
B13: NBL501#007 (VHH)
VHH: QVQLVESGGGLVQPGGSLTLSCAASGFTFSSYYMSWVRQAPGKGPEWVSIISTGGASTVYTDSVKGRFTASRDNAKNTLYLQMNSLKPEDTALYYCVRGNSRSGLIPRAYWGQGTQVTVSS
notes: as for B1

binding result [3]: no binding
B14: NBL501#010 (VHH)
VHH: QVKLEESGGGLVQAGGSLRLSCVASGSIFSINAMGWYRRAPGKERELVASISSDGSIYYADSVKGRFTISRDNAKNTLYLQMNSLKPEDTAMYDCAALGVVNVGVRPTLEYIYWGQGTQVTVSS
notes: as for B1

OD450 (human IgG): 0.03 OD450 | MFI [1]: 216 MFI | OD450 (Anti-His): 1.96 OD450 | OD450 (BCMA-His): 2.25 OD450 | MFI (BCMA on RPMI8226 cells): 864 MFI | binding result [2]: no binding | OD450 (BCMA-Fc): 2.52 OD450
B15: NBL507-A1L1-P1R2-1B6-(31)-PME207-SEQF_G04 (VHH)
VHH: QVQLVESGGGLVQPGGSLRLSCAASGFTFSPSAMSWARQAPGKGLEWVSGIYSDGSTYYRDSVKGRFTISRDNARNMVYLQMNSLKPEDTAVYYCALGAMREGVYSDLLGQGTQVTVSS
notes: purified VHH

OD450 (human IgG): 0.03 OD450 | MFI [1]: 222 MFI | OD450 (Anti-His): 0.71 OD450 | OD450 (BCMA-His): 2.28 OD450 | MFI (BCMA on RPMI8226 cells): 764 MFI | binding result [2]: no binding | OD450 (BCMA-Fc): 3.12 OD450
B16: NBL507-A2L1-P1R2-1C1-(273)-PME207-SEQF_E11 (VHH)
VHH: QVQLVESGGGLVHPGGSLRLDCAVSERIASFNVMGWYRQAPGQQREVVATITSVGRTYYADSVKGRFTIAKDNDKNTYLQMNSLKPEDTAVYYCKAVIVGTYDTEYWGQGTLVTVSS
notes: purified VHH

OD450 (human IgG): 0.04 OD450 | MFI [1]: 222 MFI | OD450 (Anti-His): 0.98 OD450 | OD450 (BCMA-His): 2.11 OD450 | MFI (BCMA on RPMI8226 cells): 532 MFI | binding result [2]: no binding | OD450 (BCMA-Fc): 3.3 OD450
B17: NBL507-A2L1-P1R2-1H1-(275)-PME207-SEQF_G11 (VHH)
VHH: B16 VHH with D21A, V24A, A29L, A70F, D74G, N82S, I98T, T101D, Y102V, L112Q
notes: purified VHH
